Measurements as given in patent US20220106398A1 (IGM BIOSCIENCES, published 2022).

B1: GITR-Mab-16 scFv (scFv, V domains shown)
VH: QVQLVQSGAEVKKPGASVKVSCKASGGTLSSYAISWVRQAPGQGLEWMGWIDPNSGGTNYAQKFQGRVTMTRDTSTSTVYMELSSLRSEDTAVYYCARQGLLWFGESGSIYYYYGMDVWGQGTTVTVSS
VL: DIQMTQSPSSLSASVGDRVTITCRASRSISNYLNWYQQKPGKAPKLLIYGASSLQSGVPSRFSGSGSGTDFTLTISSLQPEDFATYYCQQSYSTLVTFGQGTKVEIK
notes: scFv in periplasmic extract, V5 tag
B2: GITR-Mab-22 scFv (scFv, V domains shown)
VH: QVQLVQSGAEVKKPGASVKVSCKASGGRFSTYALSWVRQAPGQGLEWMGIINPTDGSTTYAQKFQGRVTMTRDTSTSTVYMELSSLRSEDTAVYYCARDVYSSSWYSDYWGQGTLVTVSS
VL: DIQMTQSPSSLSASVGDRVTITCRASQSISNWLAWYQQKPGKAPKLLIYAASTLQSGVPSRFSGSGSGTDFTLTISSLQPEDFATYYCQQSYSVPFTFGPGTKVDIK
notes: as for B1
B3: GITR-Mab-20 scFv (scFv, V domains shown)
VH: QVQLVQSGAEVKKPGASVKVSCKASGGTFSNYAISWVRQAPGQGLEWMGVINPRGGSTTYAQKFQGRVTMTRDTSTSTVYMELSSLRSEDTAVYYCARDYSIPYYGMDVWGQGTTVTVSS
VL: DIQMTQSPSSLSASVGDRVTITCRASQSISTYLNWYQQKPGKAPKLLIYDASNLETGVPSRFSGSGSGTDFTLTISSLQPEDFATYYCQQSYSTPLTFGGGTKVEIK
notes: as for B1
B4: GITR-Mab-24 scFv (scFv, V domains shown)
VH: QVQLVQSGAEVKKPGASVKVSCKASGGTFNNYAINWVRQAPGQGLEWMGTINPRDGDTTYAQKFQGRVTMTRDTSTSTVYMELSSLRSEDTAVYYCARVGYYGSGSYYSYYGMDVWGQGTTVTVSS
VL: DIQMTQSPSSLSASVGDRVTITCRASQNITNWLAWYQQKPGKAPKLLIYAASSLQSGVPSRFSGSGSGTDFTLTISSLQPEDFATYYCQQAYSFPWTFGQGTKVEIK
notes: as for B1
B5: GITR-Mab-21 scFv (scFv, V domains shown)
VH: EVQLLESGGGLVQPGGSLRLSCAASGFTFSNHYMSWVRQAPGKGLEWVAVIALDGSYRYYADSVKGRFTISRDNSKNTLYLQMNSLRAEDTAVYYCARVGPGGMDVRGQGTTVTVSS
VL: DIQMTQSPSSLSASVGDRVTITCQASQDISNYLNWYQQKPGKAPKLLIYAASSLQSGVPSRFSGSGSGTDFTLTISSLQPEDFATYYCQQSYNSPRVYTFGQGTKVEIK
notes: as for B1
B6: GITR-Mab-18 scFv (scFv, V domains shown)
VH: EVQLLESGGGLVKPGGSLRLSCAASGFTFSSYWMSWVRQAPGKGLEWVSGISWNGGTVGYADSVKGRFTISRDDSKNTLYLQMNSLKTEDTAVYYCAKLGIAVKSHWYFDLWGRGTLVTVSS
VL: DIQMTQSPSSLSASVGDRVTITCRASESISTWLAWYQQKPGKAPKLLIYAASSLQSGVPSRFSGSGSGTDFTLTISSLQPEDFATYYCQQSYTLPLTFGGGTKLEIK
notes: as for B1
B7: GITR-Mab-19 scFv (scFv, V domains shown)
VH: QVQLVQSGAEVKKPGASVKVSCKASGYTFTSYDINWVRQAPGQGLEWVGIINPSGGSTSYAQKFQGRVTMTRDTSTSTVYMELSSLRSEDTAVYYCARASSGGYYYYYGMDVWGQGTTVTVSS
VL: DIQMTQSPSSLSASVGDRVTITCRASQDIVNWLAWYQQKPGKAPKLLIYAASSLQSGVPSRFSGSGSGTDFTLTISSLQPEDFATYYCQQYYSYPLTFGQGTRLEIK
notes: as for B1

Legend:
human His6-GITR [1] = target: T1, human His6-GITR (human, UniProt Q9Y5U5 26-162); assay: CARTERRA LSA, scFv periplasmic extract
T1 construct: His6-tagged recombinant protein; also called hGITR-His; human GITR-His
T1 sequence: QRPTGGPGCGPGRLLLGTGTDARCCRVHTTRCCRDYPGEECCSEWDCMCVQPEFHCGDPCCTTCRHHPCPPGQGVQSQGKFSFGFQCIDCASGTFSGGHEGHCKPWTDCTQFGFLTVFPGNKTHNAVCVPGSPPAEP

human His6-GITR [2] = target: T1, human His6-GITR; assay: ELISA, scFv periplasmic extract on coated His6-GITR
[3] = target: T2, cynomolgus monkey His6-GITR (cynomolgus monkey); assay: as above
T2 construct: His6-tagged recombinant protein; also called cGITR-His; cyno GITR-His
T2 chain: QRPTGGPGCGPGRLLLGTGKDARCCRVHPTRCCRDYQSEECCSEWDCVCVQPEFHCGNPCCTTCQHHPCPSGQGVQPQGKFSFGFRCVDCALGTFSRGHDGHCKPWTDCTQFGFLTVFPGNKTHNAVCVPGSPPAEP

mouse His6-GITR = target: T3, mouse His6-GITR (mouse, UniProt O35714 20-153); assay: as above
T3 construct: His6-tagged recombinant protein; also called mGITR-His; mouse GITR-His
T3 sequence: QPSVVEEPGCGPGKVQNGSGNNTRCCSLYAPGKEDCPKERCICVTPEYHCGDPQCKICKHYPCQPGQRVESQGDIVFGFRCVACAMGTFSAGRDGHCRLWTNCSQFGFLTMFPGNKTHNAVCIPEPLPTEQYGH

Kd (human His6-GITR [1]) [nM] | hGITR-His/BKG (human His6-GITR [2]) [fold over background] | cGITR-His/BKG [3] [fold over background] | mGITR-His/BKG (mouse His6-GITR) [fold over background] | Binder
0.8 | 24.1 | 21.6 | 0.8 | B1
2.3 | 25.7 | 23.3 | 1.2 | B2
7.8 | 24.7 | 15.3 | 1.1 | B3
38.9 | 19 | 5.7 | 1.7 | B4
2.9 | 13.5 | 21.2 | 1.2 | B5
1 | 17.9 | 17.7 | 1 | B6
10.8 | 10 | 24.6 | 1.3 | B7
